# According to patent US20020132773A1, “Methods for reducing fat by administration of adiponectin” (Oklahoma Medical Research Foundation, priority 2001, published 2002):
# “Also recorded” adds a separate entry of the source.
# B1: adiponectin: adipocyte-specific secretory protein of 244 amino acid residues; human recombinant peptide leader deficient protein, 32 kD monomer with multimers (protein)
# chain: ETTTQGPGVLLPLPKGACTGWMAGIPGHPGHNGAPGRDGRDGTPGEKGEKGDPGLIGPKGDIGETGVPGAEGPRGFPGIQGRKGEPGEGAYVYRSAFSVGLETYVTIPNMPIRFTKIFYNQQNHYDGSTGKFHCNIPGLYYFAYHITVYMKDVKVSLFKKDKAMLFTYDQYQENNVDQASGSVLLHLEVGDQVWLQVYGEGERNGLYADNDNDSTFTGFLLYHDTN
# Experiments:
# 3T3-L1 cells = assay: Adipocyte generation by 3T3-L1 cell line; assay type: cell-based; details: insulin as only inducing agent; adiponectin 10 μg/ml, PGE2 1×10^-6 M
# From the text: Normal human bone marrow was collected by biopsy from the posterior iliac crest of healthy young volunteers with informed consent, and used for immunohistchemical analysis of adiponectin. BMS2 and 3T3-L1 cells were maintained in D-MEM (high glucose) supplemented with 10% fetal calf serum (FCS) (HyClone, Logan, Utah). MS5 cells were maintained in α-MEM medium supplemented with 10% FCS. Balb/c mice at 3-6 weeks old: were obtained from Charles Rivers Breeding Labatories (Wilmington, Me.). B6,129S-^Ptgs2tm1Jed (COX-2^+/−) mice and C57BL/6 mice (3-5 weeks old) were purchased from the Jackson Laboratory (Bar Harbor, Me.). High mortality and unavailability precluded use of homozygous COX^−/− animals in these experiments, but a single targeted allele abrogated preadipocyte responses to adiponectin.
# Bone marrow cultures represent a complex mixture of hematopoietic cells that mature through interactions with an adherent stromal layer composed of fibroblasts, adipocytes, macrophages and endothelial cells.
# BMS2 cells = assay: Adipocyte differentiation of BMS2 cells; assay type: cell-based; details: for fat cell formation (adipogenesis) of BMS2 cells: 5 μg/ml insulin and 0.5 mM MIBX, 10 days, proteins 10 μg/ml, PGE2 and Dup-697 1×10^-6 M, microscopy
# Description: (§1) Differentiation of BMS2 cells to adipocytes was achieved by treatment with 5 μg/ml insulin and 0.5 mM MIBX for 10 days. Differentiation of MS5 cells to adipocytes was achieved by treatment with 5 μg/ml insulin alone for 15 days. Cultures were treated with adiponectin, PGE2 or Dup-697 from the time of culture initiation. At the end of this period, cultures were photographed and then stained with Nile red to detect lipid accumulation indicative of adipocyte differentiation. The extent of differentiation was estimated by flow cytometry (FACScan; Becton-Dickinson, San Jose, Calif.).
# [1] = tested on: C/EBP-α and PPAR-γ in BMS2 preadipocytes; assay: Adipocyte gene expression analysis (Northern blot) in BMS2 cells; assay type: cell-based
# Description: (§2) Poly(A)^+mRNA was prepared from the indicated samples using oligo(dT) columns (Ambion Inc, Austin, Tex.). Aliquots oifpoly(A)^+ mRNA (2 μg) were denatured in formamide and formaldehyde at 65 C and electrophoresed on formaldehyde-containing agarose gels. After capillary transfer to nylon membranes (MSI, Westbourough, Mass.), the RNA was crosslinked by UV exposure. cDNA probes for CCAAT/enhancer binding protein-α(C/EBP-α) and adipocyte P2 (aP2) were obtained from ResGen™ Invitrogen (Huntsville, Ala.) and American Type Culture Collection (Manassas, Va.) respectively. Probes with sizes corresponding to PPAR-γ, COX-1 and COX-2 were prepared as PCR products and all probes were radiolabeled with [α-^32P]dCTP using the random prime labeling system (Redi Prime™ II) purchased from Amersham Pharmacia Biotech.
# as §1
# [2] = tested on: MS5 or BMS2 stromal cell clones; assay: RT-PCR / Northern blot of transcripts in adiponectin-treated preadipocytes; assay type: cell-based
# Description: Total RNA was isolated from MS5 or BMS2 cells treated with adiponectin for various periods using TRIzol Reagent (GIBCO-BRL, Grand Island, N.Y.) and suspended in DEPC-treated water. After treating total RNA with DNase (GIBCO-BRL), cDNA was made using random hexamers and moloney murine leukemia virus reverse transcriptase (GIBCO-BRL). For PCR, 10 μl of the RT mixtures described above were added to PCR buffer containing 1.5 mM MgCl2, 1 U Taq polymerase (Perkin Elmer, Norwalk, Conn.), 2 mM each dNTP, and relevant sense and antisense primers. The DNA in the PCR reaction mixtures was amplified using 25 to 35 cycles of 94 C for 1 min, 55 C for 2 min and 72 C for 3 min. The oligonucleotide primers used for these reactions were 5′-[…]-3′ (SEQ ID NO:5) and 5′-[…]-3′ (SEQ ID NO:6) for COX-2, and 5′-[…]-3′ (SEQ ID NO:7) and 5′-[…]-3′ (SEQ ID NO:8) for COX-1. Primers for TNF-α, TGF-β, interferon (IFN)-α/β/γ, and limitin were also prepared and used in this study.
# as §2
# myeloid cell lines = details: cited from earlier work
# [3] = tested on: bone marrow cells of normal Balb/c mice (LTBMC); assay: Long-term bone marrow cultures (LTBMC, Dexter cultures); assay type: cell-based, mouse
# Description: LTBMC that support formation of myeloid cells (Dexter cultures) were initiated and maintained by published methods (Dexter, T. M. and Testa, N. G. Methods Cell Biol. 14:387-405 (1976)). Bone marrow cells of normal Balb/c mice (12×10^6) were cultured in 25-cm^2 flasks in 5% CO2 at 33 C. The medium consisted of α-MEM supplemented with 100 nM hydrocortisone and 20% horse serum (HyClone). Cultures were treated with adiponectin or bovine serum albumin (BSA) beginning at culture initiation and thereafter weekly for 6 weeks. In some experiments, adiponectin was omitted from the media after 6 weeks of culture, and maintained for another 6 weeks with medium alone.
# [4] = tested on: bone marrow cells of heterozygous knockout COX-2+/- mice; assay: Adherent bone marrow cell cultures, COX-2+/- mice; assay type: cell-based, mouse; details: cells derived from COX-2+/- animals, treated weekly for 6 weeks
# Description: (§3) Adherent bone marrow cell cultures were established with heterozygous knockout COX-2^+/− mice or normal C57BL/6 mice. BM cells were suspended at 2×10^5 per 6 ml of Dexter culture media and seeded in 25-cm^2 flasks. This cell concentration gives rise to adherent stromal layers without myeloid cell growth. Cultures were treated with adiponecitin or BSA at the time of culture initiation and weekly thereafter for 6 weeks.
# [5] = tested on: normal C57BL/6 bone marrow; assay: Adherent bone marrow cell cultures, normal mice; assay type: cell-based, mouse; details: treated weekly for 6 weeks
# Description: as §3
# [6] = tested on: CFU-granulocyte-macrophage, CFU-macrophage, CFU-granulocyte, BFU-erythroid, mixed erythroid-myeloid CFU; details: cited from earlier work
# MS5 cells = assay: Adipocyte differentiation of MS5 cells; assay type: cell-based; details: 5 μg/ml insulin, 15 days; adiponectin 10 μg/ml
# Description: as §1
# cultured macrophages = details: cited from earlier work
# MS5 or BMS2 cells = assay: Enzyme-immunoassay for PGE2 in culture supernatants; assay type: cell-based; details: confluent BMS2 or MS5 cells, versus BSA
# Description: Confluent MS5 or BMS2 cells prepared in 24-well plates were incubated in 500 μl of media with or without adiponectin. Supernatants from these cultures were examined for the presence of PGE2 using an enzyme-immunoassay kit purchased from Cayman Chemical.
# [7] = BMS2 cells, Nile red staining, flow cytometry
molecule,measurement,setting,value
"CCCCC[C@H](O)/C=C/[C@H]1[C@H](O)CC(=O)[C@@H]1C/C=C\CCCC(=O)O [PGE2, prostaglandin E2, reference compound]",generation of adipocytes by 3T3-L1 line,3T3-L1 cells,minimally affected
same,fat cell formation (adipogenesis) of BMS2 cells,BMS2 cells,blocked
same,lipid accumulation induced by insulin and MIBX,BMS2 cells; [7],completely blocked
same,increases of C/EBP-α and PPAR-γ expression induced by insulin and MIBX,[1],strongly inhibited
B1,"basal expression of TGF-β, interferon-α/β/γ and limitin",[2],not obviously influenced
same,transcripts corresponding to TNF-α or interferon-β,"[2]; MS5 cells, adiponectin added to cultures",not detectable
same,transcripts for COX-2,"[2]; MS5 or BMS2 stromal cell clones, confirmed by Northern blot",upregulated
same,number of myeloid cell lines whose proliferation is inhibited,myeloid cell lines,4 of 9
same,fat cell formation in LTBMC,"[3]; adiponectin 10 μg/ml in medium, from culture initiation and weekly for 6 weeks",completely inhibited
same,influence on myelopoiesis in LTBMC,"[3]; adiponectin 10 μg/ml, conditions that favor myeloid cell production",no influence
same,reversibility of the negative influence on fat cell formation,"[3]; adiponectin omitted after 6 weeks, another 6 weeks with medium alone",reversible
same,effect on adipogenesis in adherent bone marrow cell cultures,[4],minimum effect; also recorded: negligible
same,adipogenesis in adherent bone marrow cell cultures,[5],blocked adipogenesis
same,generation of adipocytes by 3T3-L1 line,3T3-L1 cells,only slightly inhibited; also recorded: minimally affected
same,"colony formation from CFU-granulocyte-macrophage, CFU-macrophage and CFU-granulocyte",[6],suppresses colony formation
same,colony formation of burst-forming units-erythroid or mixed erythroid-myeloid CFU,[6],no effect
same,suppression of adipocyte differentiation of MS5 clone,MS5 cells,substantial suppression
same,lipopolysaccharide-induced production of tumor necrosis factor-α by cultured macrophages,cultured macrophages,significantly inhibits
same,phagocytic activity of cultured macrophages,cultured macrophages,significantly inhibits
same,fat cell formation (adipogenesis) of BMS2 cells,BMS2 cells,substantial suppression
same,fat cell formation (adipogenesis) of BMS2 cells,BMS2 cells; listed as Adiponectin,blocked adipogenesis
same,lipid accumulation induced by insulin and MIBX,BMS2 cells; [7],completely blocked
same,response (block of lipid accumulation) to adiponectin with COX-2 inhibitor included,"BMS2 cells; BMS2 cells, Nile red staining, flow cytometry, Dup-697 1×10^-6 M",substantially blocked
same,inhibition of BMS2 fat cell formation by adiponectin with Dup-697 present,"BMS2 cells; insulin and MIBX, COX-2 inhibitor Dup-697 1×10^-6 M present",not observed
same,increases of C/EBP-α and PPAR-γ expression induced by insulin and MIBX,[1],strongly inhibited
same,effect of adiponectin on C/EBP-α and PPAR-γ expression with Dup-697,"[1]; insulin and MIBX, Dup-697 1×10^-6 M",abrogated
same,increase in PGE2 secretion,MS5 or BMS2 cells,approximately two-fold
